{"source": "patent US20150306011", "proteins": {"B1": {"name": "PCAF histone acetylase enzyme (protein)", "chain": "MLEEEVYSQNSPIWDQDFLSASSRTSQLGIQTVINPPPVAGTISYNSTSSSLEQPNAGSSSPACKASSGLEANPGEKRKMTDSHVLEEAKKPRVMGDIPMELINEVMSTITDPAAMLGPETNFLSAHSARDEAARLEERRGVIEFHVVGNSLNQKPNKKILMWLVGLQNVFSHQLPRMPKEYITRLVFDPKHKTLALIKDGRVIGGICFRMFPSQGFTEIVFCAVTSNEQVKGYGTHLMNHLKEYHIKHDILNFLTYADEYAIGYFKKQGFSKEIKIPKTKYVGYIKDYEGATLMGCELNPRIPYTE"}}, "target": "histone H3 (acid extracted histones from untreated HeLa cells), P68431", "data": [{"protein": "B1", "values": [{"measurement": "histone H3 acetylation in PCAF HAT reaction (immunoblot, diacetylated H3 Ac-Lys9+Ac-Lys14)", "value": "35-fold increase"}]}]}
